# Results published in PMC2700083, “A covalent peptide inhibitor of RGS4 identified in a focused one-bead, one compound library screen” (BMC Pharmacology, 2009).
# Legend:
# Assay in all cases: FCPIA (flow cytometry protein interaction assay, Luminex beads); Gαo affinities for RGS4Δ51N wild type and mutants on beads, with AMF
# [1] = biological target: MBP-RGS4Δ51N with no Cys in the RGS domain (UniProt P49799)
# [2] = biological target: MBP-RGS4Δ51N A132C in the -7C (UniProt P49799)
# [3] = biological target: MBP-RGS4Δ51N A71C in the -7C (UniProt P49799)
# [4] = biological target: MBP-RGS4Δ51N -7C mutant (all 7 cysteines removed) (UniProt P49799)
# [5] = biological target: MBP-RGS4Δ51N A148C in the -7C (UniProt P49799)
# [6] = biological target: MBP-RGS4Δ51N with no Cys in the C-terminus (UniProt P49799)
# [7] = biological target: MBP-RGS4Δ51N A95C in the -7C (UniProt P49799)
# Gαo, Alexa Fluor 532-labeled, sequence (P59215 whole entry): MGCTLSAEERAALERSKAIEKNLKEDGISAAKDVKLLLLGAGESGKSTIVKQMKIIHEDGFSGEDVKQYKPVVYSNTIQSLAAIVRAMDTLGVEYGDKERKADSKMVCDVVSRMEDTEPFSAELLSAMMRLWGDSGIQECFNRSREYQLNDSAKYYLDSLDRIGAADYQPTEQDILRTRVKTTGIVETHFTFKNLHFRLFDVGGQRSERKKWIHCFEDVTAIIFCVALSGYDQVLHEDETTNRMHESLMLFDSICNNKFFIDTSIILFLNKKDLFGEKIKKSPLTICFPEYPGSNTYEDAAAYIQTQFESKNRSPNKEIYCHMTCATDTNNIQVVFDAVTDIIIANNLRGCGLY
substance,measurement,setting,value
"Gαo, Alexa Fluor 532-labeled (from UniProt P59215 1-354) (natural protein)",Kd,[1],3.9 nM
same,Kd,[2],12.5 nM
same,Kd,[3],9.2 nM
same,Kd,[4],8.3 nM
same,Kd,[5],5.7 nM
same,Kd,[6],5 nM
same,Kd,[7],12 nM
